B1: GST-Dyn1xA-PRR (full-length proline-rich region of Dynamin 1 splice variant xA, 746-864) [rat] / Amphiphysin 1 (endogenous, rat brain synaptosomes) [rat (endogenous in rat brain synaptosomes)] (parent complex)
chain 1: NTTTVSTPMPPPVDDSWLQVQSVPAGRRSPTSSPTPQRRAPAVPPARPGSRGPAPGPPPAGSALGGAPPVPSRPGASPDPFGPPPQVPSRPNRAPPGVPSRSGQASPSRPESPRPPFDL
chain 2: MADIKTGIFAKNVQKRLNRAQEKVLQKLGKADETKDEQFEEYVQNFKRQEAEGTRLQRELRGYLAAIKGMQEASMKLTESLHEVYEPDWYGREDVKMVGEKCDVLWEDFHQKLVDGSLLTLDTYLGQFPDIKNRIAKRSRKLVDYDSARHHLEALQSSKRKDESRISKAEEEFQKAQKVFEEFNVDLQEELPSLWSRRVGFYVNTFKNVSSLEAKFHKEIAVLCHKLYEVMTKLGDQHADKAFSIQGAPSDSGPLRIAKTPSPPEEASPLPSPTASPNHTLAPASPAPVRPRSPSQTRKGPPVPPLPKVTPTKELQQENIINFFEDNFVPEINVTTPSQNEVLEVKKEETLLDLDFDPFKPDVTPAGSAAATHSPMSQTLPWDLWTTSTDLVQPASGGSFNDFTQPQDTSLFTMQTDQNMAETEQALPTEPQAEEPPTTAAAPTAGLDLGLEMEEPKEEAAIPPGTDAGETVGTEGSTGEEAEAEKAALPAGEGESPEGAKIDVESTELASSESPQAAELEAGAPQEKVIPSVVIEPASNHEGEEHQETTTGTETREATEDVAPQGPAGEKQELATEPTPLDSQAATPAPAGAVDASLSAGDAAQELPPGFLYKVETLHDFEAANSDELTLQRGDVVLVVPSDSEADQDAGWLVGVKESDWLQYRDLATYKGLFPENFTRHLE
B2: GST-Dyn1xA-PRR (full-length proline-rich region of Dynamin 1 splice variant xA, 746-864) [rat] / Endophilin A1 (endogenous, rat brain synaptosomes) [rat (endogenous in rat brain synaptosomes)] (parent complex)
chain 1: B1 chain 1
chain 2: MSVAGLKKQFHKATQKVSEKVGGAEGTKLDDDFKEMERKVDVTSRAVMEIMTKTIEYLQPNPASRAKLSMINTMSKIRGQEKGPGYPQAEALLAEAMLKFGRELGDDCNFGPALGEVGEAMRELSEVKDSLDMEVKQNFIDPLQNLHDKDLREIQHHLKKLEGRRLDFDYKKKRQGKIPDEELRQALEKFDESKEIAESSMFNLLEMDIEQVSQLSALVQAQLEYHKQAVQILQQVTVRLEERIRQASSQPRREYQPKPRMSLEFATGDGTQPNGGLSHTGTPKPAGVQMDQPCCRALYDFEPENEGELGFKEGDIITLTNQIDENWYEGMLHGQSGFFPINYVEILVALPH

Variants of: B1
Test: GST pull-down, densitometry of western blots; n=2; parent: 100; read off a plot

How did the percent of parent turn out when chain 1 NTTTVSTPMPPPVDDSWLQVQSVPAGRRSPTSSPTPQRRAPAVPPARPGSRGPAPGPPPAGSALGGAPPVPSRPGASPDPFGPPPQVPSRPNRAPPGVPSRSGQAEPSRPEEPRPPFDL was run?
Its percent of parent is about 90%.

chain 1 NTTTVSTPMPPPVDDSWLQVQSVPAGRREPTSEPTPQRRAPAVPPARPGSRGPAPGPPPAGSALGGAPPVPSRPGASPDPFGPPPQVPSRPNRAPPGVPSRSGQASPSRPESPRPPFDL was tested. Which percent of parent did it give?
Its percent of parent is about 98%.

Variants of: B2
Test: as above

How did the percent of parent turn out when chain 1 S29E, chain 1 S33E was run?
The percent of parent was about 37%.

Which percent of parent does the source give for chain 1 S106E, chain 1 S112E here?
Its percent of parent is about 53%.

From doi:10.1101/2023.09.21.558797 (2023)
